# Results as given in the nanobody polyreactivity screen of Harvey et al. (2022).
# Test: yeast display, Sf9 membrane polyspecificity reagent, FACS + sequencing; frameworks hold sequencing errors
# Summary of the method: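 After 36–48 hours of galactose induction, yeast (Saccharomyces cerevisiae BJ5465) displaying a synthetic nanobody library were stained at 4 °C for 1 hour with 10% biotinylated, detergent-solubilized Sf9 membrane reagent. Streptavidin microbeads enriched the stained cells before FACS sorting into low and high (top ~1%) gates on anti-HA and streptavidin fluorescence. Each clone's polyreactivity label reflects its gate of origin.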
row,Sequence,polyreactivity (PSR sort gate)
1,QVQLQERAGGLVQAGGSLRQRCSASGYISCDASMGWYRQAPGKERELAASITKGSSTKYADIVKGRFTFRDNAKNTVYLKMNSLKPEDTAVCYCAVTYPYWGDYTYWGQGTQVTVSS,low polyreactivity
2,QVQLQERAGGLVQAGGSLRQSCAASGYRSLAQTIGWYRQAPGKEREFVASIALGSSTYYTDSVKGSFTISRDNAKTTVYLQMNSLKPEATAVYYCNARDDVYLITPYFLVYVNLDYWGQGTQVTVSS,low polyreactivity
3,QVQLQERGGGLVQAGASLRQSCAASGTIFTARFMGWYRQAPGKERELVATITDGGNTNDADSVKGRFTSSRDNAKITVYLQMNSLKPEYAAVYYCAAGEVDNDTLLYWGQGSQVTVSS,low polyreactivity
4,QVQLQERGGGLVQAGGSLRLSCAASGSIFQYTLMGWYLQAPGKEREFVAAITDGANTNYADSVKGRFSISRDNAKNTVNLQMNSLKPEETAVYYCATDYGYTDRVTSGFDYWGLGTQVTVSS,low polyreactivity
5,QVQLQESAGGLVQAGGSLRLRCSASGYISCDASMGWYRQAPGKERELAASITKGSSTNYADSVKGRFTIRDNAKNTVYLQMNSLKPEDTSVCYCAVTYPYWGDYTYWGQGTQVTVSS,low polyreactivity
6,QVQLQESAGGLVQAGGSLRQSCEASGYIIPYYSMGWYRQSPGKERGLVACIAAGTTTNYADSVNGRFTISRDNEKNTVYLQMNSLNPEDAAVYFCAALNAFNTGHWYWGQGTQVTVSS,low polyreactivity
7,QVQLQESCGGLVQAGGCLRLSCAASGTIFDPDYMGWYHQAPCKERELVASISLGRITYYADSVKGRFTINRDNAKNTVYLQMNSLKPEDTAVYYCAVRVETIYYYSYWGQGTQVTVRS,high polyreactivity
8,QVQLQESDGGLVQAGGSLRLTCAASGSISPQYYMGWYRQAPGQEREFVAISKGTTTYYADSVKGRLTISRVNAKNTVYLQMNSLKPEDTAVYCCAAGRWLQKVHAYWDQGTQVTVSS,low polyreactivity
9,QVQLQESGACLVLAGGSLRMSCASSGYIFDTCPMGGYRQAPGKEREFVASIDHGSNTYYADSVKGRFTISRDSAKNTVYLQLNSLKPEDTAVYYCAVRDDGSYTYGNWGQGTQVSVSS,high polyreactivity
10,QVQLQESGAGLDQAGGSLRLSCAPSGYISDIGTMGWYRQAPGKEREFVATIVVGSTTNYADSVKGRFTISRDNAKNTVYLQPESGRYRGVVLRGWLLAVGKFTYWGQGTQETVSS,low polyreactivity
11,QVQLQESGAGLEQAGGSLRMSCAASGYISDIVTMGWYRQAPGKEREFVATIVVGSTTNYADSVKGRFTISRDNANNSVYLQPESGRYRGVLLRGWLLAVGKFTYWGQGTQETVSS,low polyreactivity
12,QVQLQESGCGLVQAGGSLRLSCAASGDIIEADDMGWYRQAPGKERELVASITDGGSTNCADSMKGRSTICRDNAKITVYLQMNSLKLEDTAVYYCAAIAYPDVPTYFDYDSDYFYWGQGTLVTVSS,high polyreactivity
13,QVQLQESGCGLVQAGGSLRLSCAASGSISAVGAMGWYRQAPGKEREFAASVNWGTNTNYADSVKGRFTISRDNAKNTLYLLMNSLTPEDTAVYYCAVLPDWETRHDYWGHGTQVTVSS,low polyreactivity
14,QVQLQESGDGLVQAVGSLRLSCAASGYISGYYYMGWYRQAPGKERELVAGIDAFGSSTNYADCVKGRFTISRDNAKNTVYLQMNSLKPEDTAVYYCAARPDGYRLFSYWGQGTQVTVSS,low polyreactivity
15,QVQLQESGGCLVQAGGSQRLSCAASGYIFYFQYMGWYRQAQGKEREFVAAISDGANTNYADSVKGRFTISRDNAKNTEYLKMNSLKPEDTAVYYCAVYADENYYYIYWGQGTQVTVSS,low polyreactivity
16,QVQLQESGGGLAQAGGSLRLSCAASGTIFPADSMGWYRQAPGKERELVAGITTGANTYYADSVKGRFTISHDNAKNTVYLQMDSLIPEDIALYYCAAPGSSTYDLEYWGQGTQVTVSS,high polyreactivity
17,QVQLQESGGGLAQAGGSLRLTCAASGTIFPADSMGWYRQAPGKERELVAGITSGANTYYADSVKGRFTISHDNAKNTVYLQMDSLIPEDIAVYYCGAPGSSTYDLEYWGQGTQVTVSS,high polyreactivity
18,QVQLQESGGGLEQAGGSLRLSCAASGYISEIGTMGWYRQAPGKEREFVATIVVGSTTNYADSVKGRFTISRDNAKNTVYLQPESGRYRGVLLRGWLLAVGKFNYWGQGTQETVSS,low polyreactivity
19,QVQLQESGGGLEQAGVSLRLSCAASGYISDIGTMGWYRQAPGKEREFVATIVVGSTTNYADSVKGRFTISRDNAKNTVYLQPESGRYRGVLLRGWLLAVGIFTYWGQGTQETVSS,low polyreactivity
20,QVQLQESGGGLLQAGGSLRLSCAASGTISTDSYMGWYRQAPGKERKFVATIGYGGITYYADSVKGRSTISRDSAKNTVYLQMNSLKPEDTEVYYCAVNSYYPDHYWYWGRGTQVTVSS,high polyreactivity
21,QVQLQESGGGLVHAGGILRLSCAASGTISFINMKGWYGQAPGRERELVASINFGANTHYADSVKGRFTIRRDNAKNTVYLQMNSLKPEDTAVSYCAARKVRFGVDYWGQGTQVTVSS,high polyreactivity
22,QVQLQESGGGLVKAGGSLRLSCAASGNISPSDAMGWYRQAPGEERDLVASNAYSAITYYADGVKGRYTISRDNAKNTVYLQMNSLKPEDTEVYYCAVYQFTYPVFPAYWGQGTQVTVSS,low polyreactivity

row,Sequence,polyreactivity (PSR sort gate)
1,QVQLQESGGGLVLAGGSLRLSCAASGSITAQAYMGWDRQAPGKEREHVAGINYGDNTNYADSVKGRFTISRDNEHRVSADEQPETGRYRGVLLRGFLEIFYYYIFWGQGTQVTVSS,high polyreactivity
2,QVQLQESGGGLVLAGGSLRLSCSASGNISVYGSMGWYRQAPGKVREFVATIDPGTNTNYADSVKDRFTISRDNAKNTVYLQMNSLKPEDTAVYYCAVEAGSDWPYRYWGQGTQVTVSS,low polyreactivity
3,QVQLQESGGGLVLAGGSMRLSCAASGSISAHAYMGWERQAPGKEREHVAGINYGDNTNYADSVKGRFTISRDNEHRVSADEQPETGRYRGVLLRGFLELFYYYIYWGQGTQVTVSS,high polyreactivity
4,QVQLQESGGGLVQACGSLRLSCAASGYIFSHQYMGWYRQAPGKERELVASISPGATTNYADCVKGRFTISRDNAKNTVYLQMNSLKPEDTAVYYYAVYQILDRRLSYWGQGTQVTVSC,high polyreactivity
5,QVQLQESGGGLVQACGSLRLSCAASGYIFSHQYMGWYRQAPGKERELVASISPGATTNYADSVKGRFTISRDNAKNTVFLQMNSLKPEDTAVYYYAVYQMLDRRLSYWGQGTQVTVSC,high polyreactivity
6,QVQLQESGGGLVQACGSQRLSCAASGSISEGQDMGWYRRAPGKESEFVAGIAPCATTYYADSVKGRFTISRDNAKNSVYLQMNSLKPEDTAVYYCAARSVTETDHDYWGQCTQVTVSS,low polyreactivity
7,QVQLQESGGGLVQADGSLRLSCAASGSIFGYYYMGWYRQAPGKDRELVATINICGITNYADSVKGRFTISRDNAKNTVYLQMNSLKPDDTAVYYCAADEYAQRDLGYWGQGTQVTVSR,low polyreactivity
8,QVQLQESGGGLVQAGDSQRLSCAASGNIFRFTDMGWYRQAPGKERELVAAINAGSTTYYADSVKGRFTISRDNAKNTVYLQMNSLKPEDTAVYYCAVYYLGSGTFGYWGQGAQVTVSS,high polyreactivity
9,QVQLQESGGGLVQAGGCLRLSCAASGTIFDPDYMGWYHQAPGKERELVASISLGRITYYADSVKGRFTINRDNAKNTVYLQMNSLKPEDTAVYYCAVRVETIYYYSYWGQGTQVTVSS,high polyreactivity
10,QVQLQESGGGLVQAGGDLRLSCAASGTIFRDYIMGWYRQAPGKEREFVAGIDRGANTNYADSVKGRFTISRDNAKNTVYLQMNSLKPEDTAVYYCAADWWRVDMDYWGQGTQVTVSS,low polyreactivity
11,QVQLQESGGGLVQAGGGLRLSCAESGTISGPHVMRWYRQATGKEREFVAAINVGAYTYYADNVKGRFTISRDNEKNTVYLQMNSLKPEDTAFYYCAAFARYSRRYYYWGQGTQVTVSS,low polyreactivity
12,QVQLQESGGGLVQAGGILRLSCAACGNIFPSAVMGWYRQALGKEREFVATINSGSNTYYADSVNGRFSISRDNAKHTVYLHRNSLKLQDTAVYYCAAYFKLPAWHTSWGQGTQVSVSS,low polyreactivity
13,QVQLQESGGGLVQAGGSLCLSCAASGTIFFDGDMGWYRQAPGKEREFVAAINPGGSAYYADSVKGRLPLAAITHSVYLQMNSLKPEDTAVYYCAAKLFDVYGYYYWGQGTHVTVSS,low polyreactivity
14,QVQLQESGGGLVQAGGSLCLSCAASGTNFFDGHMGWYRQAPGKEREFVAAINPGGSAYYADSLKGRLPLAAITHTVYLQMNSLKPEDTAVYYCAAILFDVYGYYYWGQGTHVTVSS,low polyreactivity
15,QVQLQESGGGLVQAGGSLLSCAASGTISYYREMGSYRQAPGKERELVAGIGVGTITYYADSVKGRFTISRDNAKKTVFLQMNSLNPEDTAVYFCGDHIDGNDSHAYWGQGTQVTVSS,low polyreactivity
16,QVQLQESGGGLVQAGGSLRLICAASCTISQEDWMGWYRQAPGKEREFVAAIGLGSNTNYADSLKGRFTISRDNAKITVYLQMNSLKPEDTAVYYCNNDSTNNPFQYDYWGQGTQVTVSS,low polyreactivity
17,QVQLQESGGGLVQAGGSLRLRCAASRNISGSSDLGWYHQAPGKEREFVASMTSGGTTYYADSVKGRFTISRDNAKISEYLQMNSLKPEDTAVYYCAVGDPADAEFGYWGQGTQVTVRS,low polyreactivity
18,QVQLQESGGGLVQAGGSLRLSCAAIGTIFASQHMGWYRQAPGKERELVASIAKGGNTYYADSVKGRFTISRGNAKNTEYLQMNSLKPEDTAVYYCAAEIDLPYYYGSADDDYWGQGTQVTVSS,high polyreactivity
19,QVQLQESGGGLVQAGGSLRLSCAASCTISQEDWIGWYRQAPGKEREFVAAIGLGSNTNYADSLKGRFTISRDNAKNTVYLQMNSLKPEDTAVYYCAVSVWQYSDHVYRGQGTQVTVSS,low polyreactivity
20,QVQLQESGGGLVQAGGSLRLSCAASGDILEADDMGWYRQAPGKERELVASITDGGSTNCADSMKGRSTICRDNAKITVYVQMNRLKLEDTAVYYCAGIAYPDVPTYFDYDSDYFYWGQGTLVTVSS,high polyreactivity
21,QVQLQESGGGLVQAGGSLRLSCAASGIIFDNPNMGWYRQAPGKQRELVATINSGATTNYADSVKGRFTISRDNAKNTVYLLMNSLIPEDTAVYYCAVDLSPTYFYYWGQGTQVTVSS,high polyreactivity
22,QVQLQESGGGLVQAGGSLRLSCAASGNIFEADIMGWYHQAHGKERELVASITDGGSTNYADSVKGRFNIKRDNAKNIVYLQMNSLKPEDTAVYYCAAIAYPDIATYFDYDSDYFYWGQGTQVTVSS,high polyreactivity
